Reference: the supplement of paper PMC9732359
± gives the uncertainty stated by the source.

Test: protein stability index of a GFP-peptide fusion (yeast GPS) (PSI 1-4); higher = more stable; sorted into four equal gates, so the index is relative within each strain
In short: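 Plasmids in a pooled yeast library fused tiled 17-residue yeast protein peptides downstream of GFP and also expressed Cherry. Mid-log cultures grown without leucine were sorted into four equal gates by GFP/Cherry fluorescence ratio. Each gate's plasmids were PCR-amplified and Illumina-sequenced, and reads were matched to strains by barcodes. The protein stability index is derived by multiplying each gate's read frequency by its gate number and summing the results.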

Sequence	protein stability index (doa10∆)	protein stability index (pdr5∆)	protein stability index (san1∆)	protein stability index (ubr1∆)
LAKKTHKQELQDLILDL [SMC4]	3.07 ± 0.083	3.25 ± 0.088	3.14 ± 0.055	3.05 ± 0.067
LAKLVSTIDANFADKYD [RPL8A]	2.41 ± 0.14	2.8 ± 0.14	2.8 ± 0.12	1.89 ± 0.069
LALAETLKLRARQRGKL [SRP68]	–	2.64 ± 0.21	2.25 ± 0.26	2.97 ± 0.098
LALKLELLDFLTSNLSN [YJL039C/NUP192]	2.55 ± 0.053	2.26 ± 0.043	2.45 ± 0.049	2.65 ± 0.043
LALSGTSASNTSMNGVH [SNF5]	2.48 ± 0.073	2.73 ± 0.16	–	3.05 ± 0.14
LAREVPQQSGKKLLINK [DPB4]	1.43 ± 0.092	2.06 ± 0.063	1.86 ± 0.1	1.58 ± 0.067
LARGHRVEKIPEIPLVV [RPL4A]	–	3.42 ± 0.25	–	–
LARSGLRIGRIEDVTPV [RPS14B]	1.63 ± 0.046	1.95 ± 0.052	2.25 ± 0.062	2.07 ± 0.043
LASKAARKSAPSTGGVK [HHT1]	2.89 ± 0.15	3.12 ± 0.12	2.99 ± 0.076	3.05 ± 0.1
LATLHYQKKQYKDSLAL [RPN6]	1.91 ± 0.28	1.47 ± 0.17	2.62 ± 0.19	2.14 ± 0.23
LCDIDEVSDFDEMYELT [DIB1]	2.43 ± 0.19	3.08 ± 0.1	2.65 ± 0.12	1.9 ± 0.16
LCMDSSYIGTIIVKDKS [POP1]	1.2 ± 0.091	1.49 ± 0.048	1.13 ± 0.11	1.28 ± 0.089
LDEDDVNADDDDFMHSE [RPB4]	2.94 ± 0.096	2.82 ± 0.088	2.53 ± 0.12	3.07 ± 0.09
LDENLNSLSSNLSSLIV [YJL041W/NSP1]	2.41 ± 0.04	2.54 ± 0.061	2.66 ± 0.065	2.6 ± 0.044
LDIEKEAPAGNIDTITD [MCD1]	2.84 ± 0.081	3.03 ± 0.066	3.07 ± 0.086	3.08 ± 0.052
LDIINPGSVEEVDKSKL [YDL116W/NUP84]	2.94 ± 0.1	3.44 ± 0.11	3.24 ± 0.13	3.53 ± 0.087
LDLANSGDESNVISSKD [YDL116W/NUP84]	3.31 ± 0.09	3.31 ± 0.067	3.25 ± 0.051	3.26 ± 0.063
LDLIPHSSSVFKGTDFV [SRB4]	2.42 ± 0.062	2.74 ± 0.057	2.89 ± 0.068	2.4 ± 0.041
LDMELAELDPSLRTPIA [SEC65]	3.34 ± 0.14	3.26 ± 0.092	3.08 ± 0.081	3.06 ± 0.076
LDNFETKTEALLSDVVS [YJL041W/NSP1]	2.4 ± 0.054	2.72 ± 0.069	2.35 ± 0.063	2.12 ± 0.059
LDPNLITLALSSNPNSS [SRB4]	2.31 ± 0.067	2.86 ± 0.095	2.4 ± 0.084	2.56 ± 0.11
LDPTDDEGHVLKLENLH [SIN4]	–	3.16 ± 0.23	3.12 ± 0.13	–
LDQTKDTRITHLLRQTN [SNF2]	1.34 ± 0.036	1.41 ± 0.034	1.54 ± 0.061	1.32 ± 0.029
LDSDSENDLSFALMRYY [RRI2]	2.8 ± 0.068	2.89 ± 0.063	2.85 ± 0.057	2.91 ± 0.047
LEDGDVVLFNRQPSLHR [RPO31]	2.42 ± 0.072	2.67 ± 0.062	2.47 ± 0.072	2.08 ± 0.051

Sequence	protein stability index (doa10∆)	protein stability index (pdr5∆)	protein stability index (san1∆)	protein stability index (ubr1∆)
LEDKLRAVLTPLITRHC [RRP46]	2.53 ± 0.059	2.2 ± 0.05	2.33 ± 0.064	2.44 ± 0.035
LEERFDPKSPTKRSIAI [YMR129W/POM152]	2.94 ± 0.055	3.14 ± 0.055	2.9 ± 0.037	3.02 ± 0.034
LEETRTTIGDTTDKNTT [BRN1]	3.2 ± 0.071	3.27 ± 0.059	3.04 ± 0.055	3.17 ± 0.057
LEFSIYHRLSNKDMIKN [CSN12]	2.36 ± 0.096	2.91 ± 0.13	2.36 ± 0.18	2.79 ± 0.15
LEGKGSLEEIIAEGQKK [RPP2B]	2.5 ± 0.12	2.17 ± 0.072	3.1 ± 0.076	2.72 ± 0.046
LEHIDSKSEFAHRIMLT [FAS2]	2.17 ± 0.063	2.19 ± 0.069	2.72 ± 0.075	2.25 ± 0.063
LEHPYGKEVEVLMETKN [SNU114]	2.26 ± 0.083	2.98 ± 0.068	2 ± 0.1	2.21 ± 0.057
LEIMQLVCGNDSSYQDI [RET1]	–	–	3.18 ± 0.081	2.91 ± 0.17
LEIVYGYALRDVQARRQ [RPP1]	2.43 ± 0.15	1.92 ± 0.11	2.36 ± 0.13	2.3 ± 0.26
LEKGNNPSVKQGEVGAV [SWP82]	2.89 ± 0.076	3.13 ± 0.083	3.44 ± 0.052	2.7 ± 0.074
LEKKFPDRHVIFLAERR [RPS7B]	2.77 ± 0.066	2.87 ± 0.058	2.91 ± 0.046	3.1 ± 0.042
LEKKFQDRHVIFLAERR [RPS7A]	2.53 ± 0.23	2.9 ± 0.12	2.86 ± 0.27	2.71 ± 0.11
LEPDYQAPFSTSTKDKN [MED1]	2.84 ± 0.075	3 ± 0.08	2.81 ± 0.084	3.08 ± 0.074
LEPSGSYWGYKGAATGK [PRE10]	2.37 ± 0.27	–	–	2.37 ± 0.16
LERRELEGTRVSLEERT [SMC4]	3.4 ± 0.096	3.35 ± 0.082	3.29 ± 0.063	3.36 ± 0.1
LERVKRIMEKSVILSVI [YML031W/NDC1]	2.71 ± 0.086	2.17 ± 0.094	1.98 ± 0.096	1.61 ± 0.049
LESVGIEIEDEKVSSVL [RPP2A]	3.04 ± 0.075	2.67 ± 0.12	2.77 ± 0.12	2.78 ± 0.094
LEVGKNNFCALYNLSNP [RPN14]	1.58 ± 0.092	1.2 ± 0.14	1.43 ± 0.15	1.13 ± 0.046
LEVVQYIEDGRNPDIYT [NUT2]	3.14 ± 0.059	3.25 ± 0.049	3.15 ± 0.042	3.27 ± 0.039
LEYWCNPPYSQCIVYPN [SOH1]	2.03 ± 0.048	2.27 ± 0.045	2.05 ± 0.054	2.13 ± 0.037
LFDEFGNLIGVDPFDSD [SNU114]	3.12 ± 0.078	3.04 ± 0.069	2.87 ± 0.069	3.17 ± 0.058
LFEIYRDLGDDRVFNVP [YJR042W/NUP85]	2.87 ± 0.11	3.2 ± 0.1	2.75 ± 0.11	2.89 ± 0.097
LFEVNPSQTLFSISYKP [SRP21]	2.57 ± 0.071	2.84 ± 0.077	2.28 ± 0.091	2.64 ± 0.045
LFGNNAGNTTTGGGLFG [YGL172W/NUP49]	2.95 ± 0.18	3.37 ± 0.25	–	3.36 ± 0.17
LFKPLNKTLTLDLKECY [ARP7]	2.4 ± 0.067	2.14 ± 0.068	1.89 ± 0.15	2.27 ± 0.12
